PMC11886824 (Nucleic Acids Research, 2025)
Read-outs that look alike come from different tables or passages of the source.

Tests used:
cryo-EM structure = target: the molecule itself; test: cryo-EM structure
P12 WT [1] = target: T1, P12 WT (Enterobacteria phage PRD1, UniProt P17637 1-160); test: EMSA
T1 sequence: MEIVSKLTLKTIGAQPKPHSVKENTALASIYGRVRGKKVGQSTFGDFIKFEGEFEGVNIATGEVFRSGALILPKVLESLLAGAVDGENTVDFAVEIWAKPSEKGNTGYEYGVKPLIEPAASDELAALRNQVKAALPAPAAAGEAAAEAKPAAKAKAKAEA

P12 F44A+K10A (M2) = target: T2, P12 F44A+K10A (M2) (Enterobacteria phage PRD1, UniProt P17637 1-160, K10A;F44A); test: EMSA
T2 sequence: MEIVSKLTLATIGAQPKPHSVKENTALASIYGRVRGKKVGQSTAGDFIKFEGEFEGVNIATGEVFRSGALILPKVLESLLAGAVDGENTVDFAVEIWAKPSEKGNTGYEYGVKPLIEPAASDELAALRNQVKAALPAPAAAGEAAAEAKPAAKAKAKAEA

P12(1-122) (T3) = target: T3, P12(1-122) (T3) (Enterobacteria phage PRD1, UniProt P17637 1-122, del123-160); test: EMSA
T3 sequence: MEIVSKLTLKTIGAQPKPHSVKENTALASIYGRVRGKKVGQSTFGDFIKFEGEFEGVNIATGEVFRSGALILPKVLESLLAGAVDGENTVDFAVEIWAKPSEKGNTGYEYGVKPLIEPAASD

P12 WT [2] = target: T1, P12 WT; test: EMSA; remark: listed apart in the source
P12 WT [3] = target: T1, P12 WT; test: EMSA; remark: listed apart in the source

B1: P12, single-stranded DNA-binding protein from bacteriophage PRD1 (natural protein, UniProt P17637 1-160, looked up)
chain: MEIVSKLTLKTIGAQPKPHSVKENTALASIYGRVRGKKVGQSTFGDFIKFEGEFEGVNIATGEVFRSGALILPKVLESLLAGAVDGENTVDFAVEIWAKPSEKGNTGYEYGVKPLIEPAASDELAALRNQVKAALPAPAAAGEAAAEAKPAAKAKAKAEA
B1: binds (cryo-EM structure).

B2: ssDNA (non-repetitive)80 (ssDNA)
DNA: AGAGACAACTGGCCGTCGTTCTATTGTACTCACTGTGATCAGAGACAACTGGCCGTCGTTCTATTGTACTCACTGTGATC
B2 was tested, and the Kd (P12 WT [1]) was 350 nM, the binding result (P12 F44A+K10A (M2)) was “no binding” and the binding result (P12(1-122) (T3)) was “no binding”.

B3: ssDNA (non-repetitive)50 (ssDNA)
DNA: GATCACAGTGAGTACAATAGAACGACGGCCAGTTGTCTCAATCTAACGGC
B3: binds (P12 WT [2]).

B4: ssDNA (non-repetitive)40 (ssDNA)
DNA: AGAGACAACTGGCCGTCGTTCTATTGTACTCACTGTGATC
B4: binds (P12 WT [3]).

B5: ssRNA (non-repetitive)50 (ssRNA)
RNA: GAAAAUAAAAAUAAACUGGACAAUUAAGGAUCCUGUACAAGUCGACGCGG
B5: no binding (P12 WT [2]).
